The assay addresses T1, Rnd1 mutant W66L (residues 5-200) (UniProt Q92730 5-200, W66L).
T1 sequence (looked up): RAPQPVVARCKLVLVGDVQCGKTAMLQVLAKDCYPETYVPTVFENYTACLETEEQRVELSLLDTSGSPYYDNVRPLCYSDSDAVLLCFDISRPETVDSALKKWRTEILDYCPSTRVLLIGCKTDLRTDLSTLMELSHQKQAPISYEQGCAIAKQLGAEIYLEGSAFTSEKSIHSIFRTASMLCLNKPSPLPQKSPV
The assay is described as follows: ITC.

B1: plexin-B1 Rho GTPase binding domain (RBD) (domain or fragment)
chain: DVEYRPLTLNALLAVGPGAGEAQGVPVKVLDCDTISQAKEKMLDQLYKGVPLTQRPDPRTLDVEWRSGVAGHLILSDEDVTSEVQGLWRRLNTLQHYKVPDGATVALVPCLTKHVLRENQ
As a reminder, the Kd is the concentration at which binding is half-saturated. High values mean weaker binding, low ones tighter binding. Usually stoichiometry N stands for the number of molecules, sites or subunits per partner or assembly. On to B1, for which the Ka worked out at 209000 M⁻¹, the Kd amounted to 4.8 ± 0.5 µM, the dH is -3.9 ± 0.1 kcal/mol and the “stoichiometry N” value was found to be 0.98.

For the origin of these results see PMC3337157 (Small GTPases, 2011).
